According to a protein production outcome set (Wang et al. 2014):

Assay: label from the status in PepcDB records
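Further: failed if final PepcDB status was selected cloned or expressed and not failed if soluble or beyond.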

Row | Sequence | protein production
1 | MTGPAENSTNFPGHRLKSPLPLRLATLSLLILYPVAWFAPLMRAGLLPIFGLSEISVITGLQSLWASDVALALIVTAFALFAPYLKTIGTALIQWNLLDPRAQPALHILGKLAMADIFLIALYITLAKGISYATIEAAWGLYLFTACILASIALGLLTERQIRKATR | failed
2 | MTGQAAGPAAGPAAGQATKHAGGRRPGETRTREAILTAARVCFAERGFDATSLRRIAETAGVDQSLVHHFYGTKENLFLQALELPGKIEEAITAAAQGGLDGIGERVVRAHLSVWDDVSSRPALMTMVRSAAIHRAAAARLRETATGILARALGGVITGEDAMLRTSMVATQLVGLAMMRYVAHLEPLASADTDTVARHYGRAVQAIVTDRD | not failed
3 | MTGRVCVLVMDSFGIGASLDAARYGDAGANTLVHIYEACKRGECDIEGVRKGPLMLPNLAGKGLYHAAMASSGLSFIDLATLAIPSGYYGYAVEQSLGKDTPSGHWEMAGVPVTFEWGYFPDKPYCFPEELISEFIKQCNLPGVLGEKHASGTIIIDELGEKHIRTGKPIVYTSADSVFQIAAHEEAFGLQRLYDICKIARNLVDKYQIGRVIARPFTGKPGSFKRTGNRKDYATPPPEKTLLDFLKEDGREVIAIGKIADIYAHQGVTQEIKADGNMALFDATLSAMKTAPQGSLVFTNFVDFDSSYGHRRDIAGYAHALEQFDARLPELDALLQPDDMVFIAADHGCDPTFPGSDHTREHIPVLVFGPQVNSKFIGRRDCFADIGQSIAEHLQLSSPLAHGVSFL | failed
4 | MTHTHRPAALEVHHPQPLAVHPTVAPLVTVQPGPTPAVQSIVLPDGRVVTGYTLTPAPALAPVDARPAVSRTAVNVALGGVGFAAVCGGLVLLTTFIAALTTFISQLITLAAVIFGGWIAVQILGGTRHTGRGGTTINIRKAVIKRSHFHG | failed
5 | MTIAAAPPSSRFRAVRIWLTLVAALIAVMVLVGGATRLTESGLSIVEWKPVTGSLPPLTDTQWHAAFDGYKQIPQYRELNAGMTLDQFKTIFWWEWSHRLLGRVIGIVYLLPFLWFLWRGAIGPEWKRALWIIFALGALQGAVGWWMVASGLSQRTEVSQVRLATHLSLALIIYAAIVWTLRRMADGARVAAPVRLRVTALALLGLTFVQLYAGALVAGLRAGRLYNTWPEIDGALIPDAARLWFESPWWKNLFDNHLTVQFDHRMLAYALWTLAALHMIDALRTRAAARGAVQLFLALTAQATLGIFTVLYAAPIDLALVHQAMALVVLTLAVLQAERLTATRKDRTARDRGAAGRLAIPSEPFPSA | failed
6 | MTIAFLVLVVALASGFAFLNGFRDVSNAVALSTRTRALTPSIAVLLAAIFNFVGAMLSGTFILAFTQSWITLPEGTSGLTMLASALTAAILWGVYAWWRGIPLSSTNSLIGGLIGAGAASVLVGGNAVGGMDNVLLTQVALPLVLSPVIAFVAAYLLVWPVTWAARYTQPNVVNRRFRRAQAISTAAVAFGHGLQDGQRTAAVMVLAMVAAGLSSGSDVPLWILLVTAIMLTAGTMFGGWRISHTLGHKLIRVDPLRGFVAQTLTSVMLFIGAIGFHLPLSTTHTLTAAVLGSGVNQRFHTVNRRLVRRVLLFWVATPLITAAAAFILELAFSPLADL | failed
7 | MTIAHISDLHFGRIADSGVVEALLDEINAAGIDLVAVSGDLTQRARPAEYRAARNLLDALGPPTLVVAGNHDVYPWWRPLKRLRTPLERYRQFITEDLAPTFEAGGVAALGLTSAYGPSIKGGRIGPADRAAMRAFFSGTGDDRFKVLVVHHQLHPTAIGPISPHPVARQAQQTLAVAGEVGIDLILCGHLHISAIQPLEIIPGTPRIVVASAGTATSNRWREPTGPINFYNVVSVEPEAFSVEERRYVPDEGRFVRDGVTRFDHAG | failed
8 | MTIATSTKPQINWVNTLFFLGLHIGALFAFIPSNFSWAAVGVALLLYWITGGLGITLGFHRLVTHRSFQTPKWLEYFLVLCGTLACQGGPIEWVGTHRIHHLHSDTDPDPHDSNKGFWWSHIGWLIYHSPSHADVPRFTKDIAEDPVYQFLQKYFIFIQIALGLLLLYLGGWSFVVWGVFFRIVWVYHCTWLVNSATHKFGYRTYDAGDRSTNCWWVAVLVFGEGWHNNHHAFQYSARHGLEWWEVDLTWMTVQLLQILGLATNVKLADKKQ | failed
9 | MTICCPVIALAFALNRKPVSAPTARIAVLARNTSMSFASLGLIDPLLRNLQDLNYQTPTPVQVKAIPAVLGGKDVMAGAQTGTGKTAGFALPLLQRLVQQGPAVSSNRARVLVLVPTRELAEQVLQSFVAYGKGLDLRFLAAYGGVSINPQMMKLRKGVDVLVATPGRLLDLNRQNAVQFDQVETLVLDEADRMLDLGFARELNAVFAALPVQRQTLLFSATFTDDIRTMAASILRSPVNISVSPPNVTGSKIKQWVVTVDKRNKPDLFMHLVAENNWDHALVFVKTRNGVEYLAAMLDEAGYAVDTIHGDKPQPARLRALERFKTGEVQMLVATDVAARGLDIDDLPLVINVDLPIVAQDYVHRIGRTGRAGASGVAVSLVCADEAPQLAAIEALIGQTLRREEEPGFEAEHRVPETSSTGQIIKKPKKPKKPKVPQGGAAATPVAGKKPQPQGGDGKRKGGGAAGKGASVLNGSPFSVQKPRGKGKPAGKAVAGARKPAGKPAGGRGKH | failed
10 | MTIEKKKNKIIFTRTFSAPINKVFDAYTKRELFEQWFHPQDASVTVYDFNATKGGNAFYAIQAPQMTSYTIAEYLQVDAPYYIEYLDYFATSKGEKDTSMPGMHITLNFEEVKGKTTVTSTSTFPTESAAQQAIDMGVETGMNSTLNQLEKLLNQKLEHHHHHH | not failed
11 | MTIEPTQSPSSEPEVHSGEDFVHIDDPRPTGDISLSDSIVNVEKDELLDEAAEEEFRGSDSVFSGGDGGGADDDGGECSSEATKVELPEELAKSVVILTCESTADGGSCDVYLVGTAHVSKVILVLRFHLVLSLQRSCLGIELIFW | failed
12 | MTIIKYIKFVVIIVIVTIVFSCSKNEAGNSEYDPSLPISLTDFFPIQGGMATRMVIEGANFGTDLSQIKVFFNQKEASILNVKNSIIYLLVPKLPGNDCIVTVKVGNQEARFTRNFQYIENYSVTTIAGQPGTNLFVEGTLAAAQFGPVQHLAIDDENNLFITERNGSDGKGTCSVLNEESGTVTFLFKASDNLNVPTVNAQTQNVYIPLDGGYTFYELNPVNQWIAKSRLVLHPSKEQQEAGMDDFEINWKHSLAFSRYDNMIYTRSYGGDLIKVDPETRVGQKIGNFFPNTDSFIVAHPTQPEILYIAYAAKHVIYTYNIETGEHKLFAGAFGQSGWNDGIATDAEFNSPRQMSLDMEGNIYIADSGNHCIRMIDKNGIVTTPIGQPGEAGYADGSPDMALLNDPRGVAVNSEGDVYIADLGNRCIRKLTLQLEHHHHHH | failed
13 | MTIISTIFFFSFSVFFVIRYLKLKKIYDLLMIFVGLYAGLINMKLMSLSTTVSYVLDTIVIVLVIISVILFLKDKKNY | failed
14 | MTIMAGCMLVLPVMDAIAKYMAVSVGMSPAQVTFYRFFFQVLCTLPLLLVVSPGALFSAKRPWMNCLRGVLHASASLMFFAAVKYMPLADVFAIYFVEPFMLTMMSALFLGDRVGWKRWTAIVVGFGGALIVIQPSFEIFGWTSLLPVACAFFYTLYLFLNRAIGDADSPLVMQTMSGIAGTLFMAAALFAGDALGDKDFAVSLPQSAFALVLLVLLGSLSGYMHLLIVRAFRLAPLSLLAPFQYFEIISATILGYALFSDFPTPSKWLGILIIVASGLFIIWRERQQPASTPPLEGQ | failed
15 | MTISSRKAALAAVLLASVAVPAAAEPVFNRIASFPVAENLPGDKDKLSQTSAEIITATDDGNTLIYSDSPLGAIGFIDITDAKAPKSGGALMMDGEPTSVTSSAGKALVAVNTSESKARPSGRLAIVDVATKKIENTCDLGGQPDSIALNKDKTLGTIAIEDERDEDVNDGNIPQMPAGDLVVFRVKNGAVDCGSIKHVTLTDLAGVVPEDPEPEFVAFNGLNEIALTLQENNEIVIIDANTAEVKTHFSAGSVDLTGIDTKRDGALKFTGESKGVLREPDAVKWLDDNRLVVANEGDYHGGSRGFTIFDKTGKLLYESGASFERAVAHIGHYPESRSESKGVEPEGLEAAKFGDDQYFFLLAERASVVGVYKDTGADPELVQLLPSGISPEGGVAIPARNLFATANELDLGKDGGVRSHVMIYERSEGEKAYPQIVSAEKDGNPIGFAALSGLAAVPGKPGMLYAVSDSVLGSQPTIYTIDATKKPAVITDRLVVKRDGAPAQKLDIEGIAAAADGSFWLASEGYSERLVPHALYNVNAKGDIRAEIALPKELTANEIRFGFEGVTIIGTGDDATLWMAVQREWGDDEKGFVKLVSYNPKKKEWGAVRYPLDKTESGWVGLSEISAHGDSVYIIERDNLVGDAAKLKKLYKVAISELKPAKLGGELPVVKKTEAHDFLGELKTATNGYVLDKLEGFTFDASGKPYAVTDNDGVSDSSGETLFFPVELSATN | failed
16 | MTITSNISVQNDNLVVQGKTILTKIPDNIILTPVTGNGFVSGSFIGATFEQSKSLHVFPIGVLEGLRFMCCFRFKLWWMTQRMGSCGKDIPLETQFMLLESKDEVEGNGDDAPTVYTVFLPLLEGQFRAVLQGNEKNEIEICFESGDKAVETSQGTHLVYVHAGTNPFEVIRQSVKAVERHMQTFHHREKKKLPSFLDWFGWCTWDAFYTDVTAEGVDEGLKSLSEGGTPPKFLIIDDGWQQIENKEKDENCVVQEGAQFATRLVGIKENAKFQKSDQKDTQVSGLKSVVDNAKQRHNVKQVYAWHALAGYWGGVKPAASGMEHYDSALAYPVQSPGVLGNQPDIVMDSLAVHGLGLVNPKKVFNFYNELHSYLASCGIDGVKVDVQNIIETLGAGLGGRVSLTRSYQQALEASIARNFTDNGCISCMCHNTDGLYSAKQTAIVRASDDFYPRDPASHTIHIASVAYNSLFLGEFMQPDWDMFHSLHPTAEYHAAARAVGGCAIYVSDKPGNHNFDLLRKLVLPDGSVLRAKLPGRPTRDCLFADPARDGIRCWLVQGNEEEPDP | failed
17 | MTIVGLKKTYLGLIDKKTGKIIAGPEGLTTDGLYMSNPKDLGTASANITNIAAAGTQKFGDNGLVDVVSSKSFPQVAAVWNNLPFDIKAKIKGEVSDKKGGYVQSQDLPQVALIIESELIDRSHSIFYAFGNGHMTETALNIQTDNAAQNRVEDALTYQSLAFEAWNNQGMKTFNSADSGFDKTAMLKEVMGGYAASGLGVLEHHHHHH | failed
18 | MTIYHFVGIKGSGMSALAQILHDKGFQVQGSDVDKYFFTQKALEEKQIPIMTFSADNIQEGLTIIAGNAFPDTHEEIERALELGLSVIRYHKFLGQLIDGYTSIAITGSHGKTSTTGLLSHVVGAIRPTSYLIGDGTGSGTKDAEYFALEACEYQRHFLAYKPTYAIMTNIDWDHPDYFKSVDDVFNAFETLGKQVKKAVFALGDDAELRKLTLDIPIIYFGFGEENEFQAKNVIKETTGTKFDVYHREEFLSSFEIPAYGDHNVLNALSVIALCDYEGLPVEDVKNELKTFEGVKRRFSITEKGNQVLVDDYAHHPSEIRATVNAARQKYPDKKVVAVFQPHTFTRTRTFLQGFADSLNLADEVYLCDIFGSAREKTGNLTIADLAHKTKGNHIIKEEHTEELLKYPEAVILFMGAGDVQKFQAAYEKVLDHEFLTEADLKKSAIN | failed
19 | MTIYLHSIQIGVLLFFIFLFISLIPYLIVQYRRYGRINFWRFFVNFSFILYLICAYAMTIFPLPPVSEVAKMTGPKQNLVPFEFVRQFILYSPFNINEPSTWLAALKDSTFIQPFFNLLLTLPFGLYLRYLFKRSFKQTFVLSFLLTLSFELIQRSALFGLYPRPYRLFDVDDLMINTLGSLIGFGIAVTFSRFLPDLDATKAESSRVSLSRRFIAFLVDLVLIFIIGSLFLPIGYYSELIILGLVPLVLKATPGQLLLRIQIKAKNRFRIALRQFLSFGNFALIISAEYFLQRSGTIPQDQLGQNFLLILLFLGLSLLPLLDVLIAFLSKTRKLWYERVSDTEMIAKLKTNEE | failed
20 | MTIYTLSHGSLKLDVSDQGGVIEGFWRDTTPLLRPGKKSGVATDASCFPLVPFANRVSGNRFVWQGREYQLQPNVEWDAHYLHGDGWLGEWQCVSHSDDSLCLVYEHRSGVYHYRVSQAFHLTADTLTVTLSVTNQGAETLPFGTGWHPYFPLSPQTRIQAQASGYWLEREQWLAGEFCEQLPQELDFNQPAPLPRQWVNNGFAGWNGQARIEQPQEGYAIIMETTPPAPCYFIFVSDPAFDKGYAFDFFCLEPMSHAPDDHHRPEGGDLIALAPGESTTSEMSLRVEWL | not failed
